{"source": "patent US20230192857A1", "key": {"[1]": {"biological_target": "JAK1 kinase domain (JH1) (Homo sapiens) (UniProt P23458)", "sequence (P23458 854-1154 limits assumed)": "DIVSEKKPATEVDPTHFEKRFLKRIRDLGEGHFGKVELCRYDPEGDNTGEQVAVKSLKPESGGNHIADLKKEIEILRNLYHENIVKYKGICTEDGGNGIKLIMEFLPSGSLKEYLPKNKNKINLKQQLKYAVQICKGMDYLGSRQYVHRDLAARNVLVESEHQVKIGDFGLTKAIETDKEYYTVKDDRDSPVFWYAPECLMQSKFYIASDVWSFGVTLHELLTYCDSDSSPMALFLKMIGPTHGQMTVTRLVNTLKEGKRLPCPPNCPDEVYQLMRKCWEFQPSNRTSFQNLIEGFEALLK", "assay": "cell-based or functional assay"}, "[2]": {"biological_target": "JAK1-Y1034 phosphopeptide with an alanine substitution at the +3 position (UniProt P23458)", "assay": "ITC"}, "[3]": {"biological_target": "phosphopeptide corresponding to Tyr1034 within the JAK1 kinase domain activation loop (UniProt P23458)", "assay": "ITC"}}, "data": [{"substance": "hCIS-SH2-BC complex (recombinant trimeric complex of human GST-CIS-SH2 construct with Elongins B and C) (from UniProt Q9NSE2 66-258; Q15370 1-118; Q15369 17-112)", "values": [{"measurement": "efficiency of JAK1 JH1 kinase inhibition relative to SOCS1", "setting": "[1]", "result": 100, "unit": "fold lower"}, {"measurement": "fold selectivity of kinase inhibition, JAK1 against JAK2, JAK3 or TYK2 (JH1 domains)", "setting": "[1]", "result": "> 20", "unit": "fold"}]}, {"substance": "human CIS lacking both the N-terminal region and the PEST motif (ΔNT/ΔPEST), trimeric complex with elongins B and C (from UniProt Q9NSE2 67-258; Q15370 1-118; Q15369 17-112)", "values": [{"measurement": "fold reduction of binding against the wild-type JAK1-Y1034 phosphopeptide", "setting": "[2]", "result": 4, "unit": "fold"}]}, {"substance": "human CIS lacking the N-terminal 34 residues (ΔN34), trimeric complex with elongins B and C (from UniProt Q9NSE2 35-258; Q15370 1-118; Q15369 17-112)", "values": [{"measurement": "Kd", "setting": "[3]", "result": "2.2 to 10", "unit": "µM"}]}]}
